Reference: paper PMC4686876
Where two headings read alike, the source gives them in different places.

Key:
[1] = target: T1, interferon-gamma (IFNγ) (human) (UniProt P01579); experiment: SPR; conditions: SPR (BIAcore T200, biotinylated aptamer on SA chip), 1x PBS (1 mM KH2PO4, 3 mM Na2HPO4) with 205 mM NaCl final, 0.05% NP-40, pH 7.4, 25 °C, IFNγ 1.25-50 nM
T1 sequence: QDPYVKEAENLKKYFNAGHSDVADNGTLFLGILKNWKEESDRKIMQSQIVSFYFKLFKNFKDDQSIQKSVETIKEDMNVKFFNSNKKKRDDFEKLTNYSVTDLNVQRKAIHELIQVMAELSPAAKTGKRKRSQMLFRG

[2] = target: T1, interferon-gamma (IFNγ) (human); conditions: N = unnatural base Ds at positions 18, 29, 40; SPR (BIAcore T200, biotinylated aptamer on SA chip), 1x PBS (1 mM KH2PO4, 3 mM Na2HPO4) with 205 mM NaCl final, 0.05% NP-40, pH 7.4, 25 °C; IFNγ 1.25-50 nM; cited from earlier work

| Sequence | Kd ([1]; N = unnatural base Ds at positions 28, 39) | Kd [2] | Kd ([1]; N = unnatural base Ds at positions 18, 29, 40) |
| --- | --- | --- | --- |
| CCCGCCCGGGTCCGCGAAGCGGTAGGTNTGGGCTAGGCNGCTGGCGGGCGCGAAGCG [aptamer 57mhGC] | 33 pM | – | – |
| TCCACTCGGGTCATTTANTAATGTAGGTNTGGGCTAGGCNGCTAGTGGA [aptamer 49] | – | 46 pM | 46 pM |
